The values that follow come from the supplement of paper PMC12042874.

The nature of this data set: amyloid nucleation score (Sup35N fusion, yeast selection) (log enrichment); library NNK3; higher = more nucleation; inactive = no reads after selection. In short, it runs like this:
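Peptides of 20 random codons, each fused to Sup35N, were expressed in psi-negative yeast. Cells were induced with 100 μM copper sulfate for 24 hours and grown 7 days at 30°C on medium lacking adenine and uracil, and plasmid inserts before and after selection were Illumina-sequenced. Nucleation scores are DiMSum log enrichments of output over input reads, centred on the mode score of non-aggregating sequences, and sequences under 100 input reads were excluded.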

± gives the uncertainty stated by the source.

As for ASIHMFVLYRWSFG, the amyloid nucleation score amounted to 0.013 ± 0.75.

Regarding KDPEVQVRK, the amyloid nucleation score entry was “inactive”.

On to WVGLVPYPMVAQEVFNHQD, for which the amyloid nucleation score result is “inactive”.

As to ASNSIKWFADHFPHSFVN, the amyloid nucleation score entry was “inactive”.

For the substance PLNMSRCTLALTLFVISFGW, the amyloid nucleation score result is “inactive”.

Turning to YSDLKSFLLNVIGRNKSIGM, the amyloid nucleation score entry was “inactive”.

For FASTVCEIPSFPWTKPRIMV, the amyloid nucleation score entry was “inactive”.

Take VWNFPNILCFGWIFRA: the amyloid nucleation score was found to be 1.64 ± 0.093.

On to CASSWLF, for which the amyloid nucleation score entry is “inactive”.

Take PDRCFD: the amyloid nucleation score result was “inactive”.

The substance TLNIFVVSFNDYWVSVIIKD showed an amyloid nucleation score of 2.46 ± 0.066.

For FTNKNCFIGAVTRCEVRVWG, the amyloid nucleation score result is “inactive”.

The substance SVNVHCIREPWVADWTCCRL showed an amyloid nucleation score of 1.18 ± 0.16.

PDHEMGSHLLV: the amyloid nucleation score result was “inactive”.

Consider SWASQWLFTPLSTVRSYIIL, for which the amyloid nucleation score entry was “inactive”.

For the substance SVIILYRCSFRGWRSHASGN, the amyloid nucleation score turned out to be 1.05 ± 0.1.

As to VWVIVKTNLLLVAGQGGAFG, the amyloid nucleation score was found to be 0.693 ± 0.15.

Turning to SIGNAVYMIVGITGVRRRIY, the amyloid nucleation score entry was “inactive”.

Consider RVRRGSHCNTFKKSLRLRCA, for which the amyloid nucleation score result is “inactive”.

For the substance ELRSIR, the amyloid nucleation score result was “inactive”.

With GRCFKFCNLDT, the amyloid nucleation score result was “inactive”.

Turning to ACYAAQCWSNF, the amyloid nucleation score entry is “inactive”.

For YVCCYARNDRRFSWERRHLS, the amyloid nucleation score entry was “inactive”.

Take LMSYV: the amyloid nucleation score entry is “inactive”.

As to ENVPLNAAYCSL, the amyloid nucleation score result is “inactive”.

As to SLIDRIIVKPKVWTGGKNYP, the amyloid nucleation score result was “inactive”.

Regarding LCGDYGV, the amyloid nucleation score result was “inactive”.

On to SYCATCHIPRENMSLQCVME, for which the amyloid nucleation score was 1.3 ± 0.1.

The substance RWNGFVVNTFINTLGRLTKC had an amyloid nucleation score of -0.578 ± 1.

Consider GKDSCKTTLVSRRLLRLKAP, for which the amyloid nucleation score entry was “inactive”.

For FLLDMGVNALSW, the amyloid nucleation score result is “inactive”.

For STWTG, the amyloid nucleation score entry is “inactive”.

Consider ICYRRPTSSMP, for which the amyloid nucleation score entry was “inactive”.

Take YMCGSGCF: the amyloid nucleation score entry was “inactive”.

VVTVGVMT: the amyloid nucleation score entry is “inactive”.

In the case of EIIFLS, the amyloid nucleation score entry was “inactive”.

Turning to NNPLLIRDLHLTKVDISAVC, the amyloid nucleation score result is “inactive”.

In the case of DIWYRIKMFSIWKFMSHTTG, the amyloid nucleation score result was “inactive”.

As to IKFRDVEGKTLVQKCSQIF, the amyloid nucleation score result was “inactive”.

For LPKCGPRYFDWLNAPEDCMF, the amyloid nucleation score result is “inactive”.

Consider RLRLYFRLTKNFHSMNHW, for which the amyloid nucleation score result was “inactive”.

Take LRSYFALINRLPCTCTRGGM: the amyloid nucleation score result is “inactive”.

TCKCGSALK registered an amyloid nucleation score of 0.384 ± 0.21.

Consider FIFHNHVFFDLSNMFRYYVY, for which the amyloid nucleation score amounted to 1.92 ± 0.087.

PLHSWKQCALRRVSSNTSSG registered an amyloid nucleation score of 1.75 ± 0.093.

In turn, RGIWGLSLYGVISNVSGLSK showed an amyloid nucleation score of -0.103 ± 0.43.

Take ASRTAHVSEVQFGCAPGSER: the amyloid nucleation score entry was “inactive”.

In the case of SMASGRSALIKVV, the amyloid nucleation score result is “inactive”.

In the case of LYAFRDSCDTFSC, the amyloid nucleation score entry was “inactive”.

YQLFWRLALFCPVYGCVYLM yielded an amyloid nucleation score of -0.027 ± 0.35.

The substance SMQVQMTWLCDRSSLGQRNL displayed an amyloid nucleation score of 1.61 ± 0.074.

For SLMLGYETFFMPCGQDMAKW, the amyloid nucleation score result was “inactive”.

Take GSFNFCSNAARFQ: the amyloid nucleation score result is “inactive”.

On to NISSTSFRMGNIIGNEFLVY, for which the amyloid nucleation score result was “inactive”.

As for LDPEP, the amyloid nucleation score entry was “inactive”.

For the substance QQSTIIFFVWAWMELNPTWK, the amyloid nucleation score entry is “inactive”.

On to YSMRRTDIHPVVFRQ, for which the amyloid nucleation score entry is “inactive”.

With ESYINLDIHNYIKTIILSLA, the amyloid nucleation score result was “inactive”.

Consider IGDDGFVN, for which the amyloid nucleation score entry is “inactive”.

On to GSKYMQRHLNTI, for which the amyloid nucleation score entry is “inactive”.

With SFWTMGNS, the amyloid nucleation score entry is “inactive”.

Consider TVLCFSACQENFSSSLRRLY, for which the amyloid nucleation score entry was “inactive”.

As for VGKFRLMIHVTSHYGFCDLF, the amyloid nucleation score result is “inactive”.

On to CQSSVLLCSYCGY, for which the amyloid nucleation score came out at 2.65 ± 0.074.

In the case of TADIESMIMFNGRVPGHLSV, the amyloid nucleation score entry is “inactive”.

As to FGLTTRRRPRNVW, the amyloid nucleation score entry is “inactive”.

Turning to VKLSSFCRSNNCWYMRHAFL, the amyloid nucleation score result was “inactive”.

With RTLAVSIRNQWPYIGLARDT, the amyloid nucleation score entry was “inactive”.

Substance CVSIKIASPPF showed an amyloid nucleation score of 0.43 ± 0.3.

On to YYSSWLFTGMVGSYTFTALC, for which the amyloid nucleation score result is “inactive”.

Turning to VYNRVHNCGMKVANYDTRDK, the amyloid nucleation score entry is “inactive”.

Substance IWVLSCRLISRTRFICDRRM registered an amyloid nucleation score of 0.057 ± 0.93.

Substance VFLVQFFFINFLGNSN had an amyloid nucleation score of 2.45 ± 0.067.

Turning to TRGLWYQHVDHSTFRLKEST, the amyloid nucleation score entry is “inactive”.

As for TGVNFGRLLLISRSVLGVC, the amyloid nucleation score result was “inactive”.

On to DSTEVRYQNPMTTLRGVVFW, for which the amyloid nucleation score entry is “inactive”.

Turning to CIVKTLQ, the amyloid nucleation score entry is “inactive”.

Take DSLKIR: the amyloid nucleation score result is “inactive”.

As for LWYSCLVSRSSIVSHGWVGL, the amyloid nucleation score entry is “inactive”.

With IVSTSYNWDDACYDRTLQGG, the amyloid nucleation score entry is “inactive”.

Regarding LFCCPDLFRRG, the amyloid nucleation score was 2.4 ± 0.09.

Turning to VYWTEWTCMDIDGIQFLVNV, the amyloid nucleation score entry is “inactive”.

For INSTRMAFVWR, the amyloid nucleation score result is “inactive”.

Take YTLVDRSICT: the amyloid nucleation score entry is “inactive”.

On to SYRCMSESRFYYFLSCHARR, for which the amyloid nucleation score result was “inactive”.

VNVDLPLARNHWYPSPIYMV registered an amyloid nucleation score of -0.654 ± 0.84.

For CLVHEVPWRQMGSDLNKAAS, the amyloid nucleation score result was “inactive”.

Take LTGRISIARFEVDLGFGCPS: the amyloid nucleation score worked out at 0.682 ± 0.18.

Take MILCLLRKAQFCY: the amyloid nucleation score result was “inactive”.

On to GDSNTSRLCAPSMRNVKAQL, for which the amyloid nucleation score entry was “inactive”.

Turning to VSGFERVHGKGSN, the amyloid nucleation score result was “inactive”.

Take VWVLGQLWFF: the amyloid nucleation score result was “inactive”.

Consider LIISFKYCFPWKVVSTSVYN, for which the amyloid nucleation score worked out at 1.17 ± 0.17.

Consider HMFRVVPSLIRI, for which the amyloid nucleation score entry was “inactive”.

Substance SQGQY returned an amyloid nucleation score of -0.672 ± 1.4.

As for VDWKVAR, the amyloid nucleation score entry was “inactive”.

Take LYMFHCAFILSIFMFHTPVH: the amyloid nucleation score result was “inactive”.

With GDFLNCAFLTKIFEHQNNFW, the amyloid nucleation score is 1.85 ± 0.077.

As to WGRGNAAMYGVFRSGNLLVI, the amyloid nucleation score result was “inactive”.

For ETGMLCSGYCKGVCARDDPG, the amyloid nucleation score result is “inactive”.

Turning to WAQLRSTWTSSKAYWLTA, the amyloid nucleation score entry is “inactive”.

Consider WRFQQQAFRYNWPWVILLLV, for which the amyloid nucleation score entry was “inactive”.

Regarding HWYVIKLSSNGCTFAVSLRV, the amyloid nucleation score result was “inactive”.

On to CYRRSYASKLSDV, for which the amyloid nucleation score entry is “inactive”.

With AFYYRVELVYLAC, the amyloid nucleation score entry was “inactive”.

With CLQSQFLNFE, the amyloid nucleation score result was “inactive”.

In turn, RDYAFNPMFCCATNAKFMKG gave an amyloid nucleation score of 1.96 ± 0.06.

With LLYNTMSLSSSWEY, the amyloid nucleation score is 0.893 ± 0.17.

Consider NNSTRLIWWCMVKMRYNHCE, for which the amyloid nucleation score result was “inactive”.

For the substance PSPLDSRLEHYRMDSTCRVV, the amyloid nucleation score entry was “inactive”.

For VRGTGVVDRLGLGRWDRPEG, the amyloid nucleation score result was “inactive”.

As for TCFLVFTCVVGV, the amyloid nucleation score result is “inactive”.

Take DRHVSQFSVWDW: the amyloid nucleation score result was “inactive”.

For the substance YWDCGLCVNEMGRFICCLGG, the amyloid nucleation score entry is “inactive”.

For AIDHSFT, the amyloid nucleation score result was “inactive”.

Regarding FVSMRIYGGLRRWHHEYLVV, the amyloid nucleation score result is “inactive”.

The substance GSFMDHKTR returned an amyloid nucleation score of -0.382 ± 1.1.

In the case of NSDNHYFQRTMTNFANGKGC, the amyloid nucleation score entry was “inactive”.

On to EIRKQHCCHS, for which the amyloid nucleation score result was “inactive”.

FDLWNIILVYIPVNACC gave an amyloid nucleation score of 0.735 ± 0.11.

Regarding SCGYTLWLYRCEIQRRV, the amyloid nucleation score result is “inactive”.

For the substance RPRTRNRRSSISWAKAL, the amyloid nucleation score result is “inactive”.

On to FDNVISILPPYFTSFSG, for which the amyloid nucleation score entry was “inactive”.

CVDTDLVERWIAWVSSGVML displayed an amyloid nucleation score of 0.663 ± 0.21.

Substance CCVGYFYGLEV showed an amyloid nucleation score of 2.06 ± 0.064.

On to LCFNLYMFCSYVCGMAIKSL, for which the amyloid nucleation score result is “inactive”.

Regarding AIRLYLDGIHQMHYYHTLCL, the amyloid nucleation score entry was “inactive”.

Regarding HFNCRYNAGCDGVLVFDVLL, the amyloid nucleation score entry was “inactive”.

Substance YMRSIGSIFFILYCMQSAHG displayed an amyloid nucleation score of 0.121 ± 0.33.

As for TWFTSFYCFSNNAYLYF, the amyloid nucleation score is 1.8 ± 0.066.

With TCYSIERFACY, the amyloid nucleation score result is “inactive”.

In the case of VCYNLCRKIPDSLSKIPDRR, the amyloid nucleation score result is “inactive”.

As for WNVLPATMMRFIRDMTGH, the amyloid nucleation score entry is “inactive”.
